Data on three molecules can be found in patent US20230210962A1, “CONDITIONING REGIMEN FOR TRANSPLANT” (Hansa Biopharma AB, priority 2020, published 2023).

For data set [1], the target named is Rabbit anti-thymocyte globulin (rATG) (rabbit). Kind of data set: cell-based or functional assay. As to conditions: scale: of 11 subjects with intact rATG remaining.
Data set [2] concerns B6.CD45.2 donor bone marrow cells. The data set is described as follows: Short-term survival of donor BMC in sensitized recipients. The data set is classed as in vivo, NOD mice. As to conditions: T cell-depleted NOD, enzyme 4 h prior to BMT, four hours post-BMT. An excerpt:
FIG. 2. EndoS-imlifidase reduces DSA-mediated killing of donor BMC in sensitized recipients. (A-C) Naive NOD mice were immunized with FVB splenocytes four weeks prior to the administration of EndoS-imlifidase. Sera were harvested prior to immunization, prior to and four hours after enzyme treatment. Representative histograms on the left are for DSA-IgG Fc (panel A), DSA-IgG1 Fc (panel B), DSA-IgG3 Fc (panel C) and DSA-IgG3 heavy chain (panel D) with sera at a 1:25 dilution. Mean fluorescence intensity (MFI) of DSA in the titrated sera is shown on the right. Mean±SEM are shown. Ratio paired t test was used to compare MFI of DSA before and after enzyme treatment at each serum dilution with *p<0.05, **p<0.01. (D) Schematic of the experiment shown in E-F. Naive NOD mice were immunized with B6.CD45.1 splenocytes four weeks prior to injection of T cell depleting mAbs. […] Splenocytes and bone marrow cells were analysed for the expression of MHC-I H-2K^b and CD45.2. […]
To determine the short-term survival of donor BMC in sensitized recipients, NOD mice that had been sensitized to B6.CD45.1 splenocytes were T cell-depleted (anti-CD4, 0.25 mg, anti-CD8, 0.25 mg, anti-CD90 0.3 mg, i.p.) two days prior to BMT and i.v. injected with EndoS and imlifidase 4 hours prior to BMT (80×10^6 B6.CD45.2 BMC via i.v. injection). Splenocytes and BMC were analyzed at 4 hours post BMC injection.

Data set [3] is described as follows: Imlifidase serum concentration in healthy subjects. Format: in vivo, human. As to conditions: 0.25 mg/kg imlifidase, 96 hours. How it is done: (§1) FIG. 5. Mean imlifidase concentration vs. nominal time from dosing (N=15). Data BLQ are included in mean calculation as BLQ/2. SD indicated with bars. FIG. 6. In vitro cleavage of rATG by imlifidase over time. Columns indicate number of subjects with visible intact rATG on Western blot post-imlifidase (N=11).
(§2) The cleavage pattern of rATG was investigated with sera from healthy subjects (n=11) treated with 0.25 mg/kg imlifidase (EudraCT number: 2019-002770-31). Serum samples were incubated with a fixed, clinically relevant, concentration of 50 µg/mL rATG (commonly observed after a dose of 1.5 mg/kg), for 2 hours at 37° C. Serum samples were collected pre-imlifidase through 14 days post-imlifidase and were analyzed using SDS-PAGE and Western blot, developed with a goat anti-rabbit IgG, F(ab′)2 specific antibody to evaluate the cleavage of rATG. Imlifidase concentration was analyzed using a validated electroluminescence immunoassay based on MSD technology.

The next data set has as its system rATG. Kind of data set: In vitro cleavage of rATG by imlifidase in post-dose sera (SDS-PAGE and Western blot). The data set is classed as biochemical, rabbit. As to conditions: sera 96 hours post-imlifidase, 50 µg/mL rATG, 2 hours at 37° C. On the procedure:
as §1, §2

The next data set has as its system plasma IgG-pool. As to conditions: humans, cited from earlier work.
Data set [4] deals with anti-MHC-I H-2K^b mAb (mouse IgG2b) mediated killing of donor BMC. Kind of data set: In vivo EndoS mediated monoclonal DSA inhibition assay (NOD recipients). Set-up: species or system NOD mice. On the procedure:
(§3) FIG. 1. EndoS inhibits monoclonal DSA mediated killing of donor bone marrow cells. Naive NOD (panel A-B) or B6.H-2^g7 (panel C-D) were given 30 µg EndoS and/or anti-H-2K^b mAb (10 µg or 100 µg) intravenously four hours prior to the infusion of a mixture of CFSE labeled NOD/CTV labeled B6 bone marrow cells (BMC; panel A-B) or CFSE labeled B6.H-2^g7/CTV labeled NOD.H-2^b BMC (panel C-D). Shown are experiment protocols for NOD (panel A) and B6.H-2^g7 (panel C). Shown are the ratios of dye labeled B6 to NOD cells (panel B) or NOD.H-2^b to B6.H-2^g7 cells (panel D) in the blood (left panels) collected one to three hours after bone marrow transplant (BMT), in host spleens (middle panels) and bone marrow (BM, right panels) collected at four hours after BMT. Mean±SEM are shown. Data were pooled from five (panel B) and four (panel D) independent experiments. Mann-Whitney U test (middle and right panels) was used for the comparisons shown; *p<0.05 and **p<0.01.
NOD or B6.H-2^g7 mice were i.v. injected with vehicle, anti-MHC-I H-2K^b (10 µg) alone, or a mixture of EndoS (30 µg) and anti-MHC-I H-2K^b (10 µg or 100 µg) as a pretreatment. EndoS and anti-H-2K^b were mixed right before injection. Four hours after this pretreatment, five million cells of a 1:1 mixture of carboxyfluorescein succinimidyl ester (CFSE) labeled NOD and cell trace violet dye (CTV) labeled B6 bone marrow cells (BMC) were i.v. injected into the pre-treated NOD mice. Similarly, a 1:1 mixture of CFSE labeled B6.H-2^g7 and CTV labeled NOD.H-2^b BMC were injected into pre-treated B6.H-2^g7 mice. Blood was collected at 1, 2, and 3 hours post cell administration and analyzed by flow cytometry. Splenocytes and BMC from one hind limb were collected from each mouse and analyzed at four hours post BMC injection.
To evaluate the effect of EndoS on inhibiting the antibody-mediated killing of donor BMC, DSA passive transfer experiments were performed. Of all DSA, anti-donor MHC or HLA antibodies are of most importance in the clinic. Therefore, naïve NOD mice were injected with mouse IgG2b antibodies targeting MHC-I K^b expressing cells, treated with EndoS or left untreated, and thereafter subjected to bone marrow transfer from B6 mice.

Data set [5] shares this test system. The data set is described as follows: In vivo EndoS mediated monoclonal DSA inhibition assay (complement sufficient B6.H-2^g7 recipients). Also noted: species or system B6.H-2^g7 mice. As to conditions: compared to NOD hosts. How it is done:
as §3
NOD or B6.H-2^g7 mice were i.v. injected with vehicle, anti-MHC-I H-2K^b (10 µg) alone, or a mixture of EndoS (30 µg) and anti-MHC-I H-2K^b (10 µg or 100 µg) as a pretreatment. […] Blood was collected at 1, 2, and 3 hours post cell administration and analyzed by flow cytometry. Splenocytes and BMC from one hind limb were collected from each mouse and analyzed at four hours post BMC injection. […]

Consider “Imlifidase (IdeS, Immunoglobulin G-degrading enzyme of S. pyogenes)”, for which the cleavage of rATG in sera of imlifidase-treated subjects (SDS-PAGE and Western blot), 96 hours post-imlifidase in data set [1] worked out at 8.

B1: imlifidase: IdeS (Immunoglobulin G-degrading enzyme of S.pyogenes), IgG cysteine protease; mature sequence SEQ ID NO: 2 (protein)
chain: DSFSANQEIRYSEVTPYHVTSVWTKGVTPPANFTQGEDVFHAPYVANQGWYDITKTFNGKDDLLCGAATAGNMLHWWFDQNKDQIKRYLEEHPEKQKINFNGEQMFDVKEAIDTKNHQLDSKLFEYFKEKAFPYLSTKHLGVFPDHVIDMFINGYRLSLTNHGPTPVKEGSKDPRGGIFDAVFTRGDQSKLLTSRHDFKEKNLKEISDLIKKELTEGKALGLSHTYANVRINHVINLWGADFDSNGNLKAIYVTDSDSNASIGMKKYFVGVNSAGKVAISAKEIKEDNIGAQVLGLFTLSTGQDSWNQTN
modifications: Streptococcus pyogenes
As to B1, in data set [2], the “B6.CD45.2 donor cells in BM” value is 0.15% and the “B6.CD45.2 donor cells in spleen” value is reported as 0.46%. In data set [3], the “imlifidase serum concentration, individual variation” value was less than 0.1 to 1.8 µg/mL and the “imlifidase serum concentration, mean” value stood at 0.5 µg/mL. The “subjects in which complete cleavage of rATG was avoided” value in the data set with rATG is 8 of 11. The “cleavage of the entire plasma IgG-pool” value with plasma IgG-pool (after dosing with IdeS) is “within minutes”. The “time IgG levels in blood remain low” value in the data set with plasma IgG-pool (until newly synthesized IgG appeared) was “more than a week”.

B2: EndoS: Endoglycosidase of S. pyogenes, IgG endoglycosidase; mature sequence SEQ ID NO: 90 (protein)
chain: EEKTVQVQKGLPSIDSLHYLSENSKKEFKEELSKAGQESQKVKEILAKAQQADKQAQELAKMKIPEKIPMKPLHGPLYGGYFRTWHDKTSDPTEKDKVNSMGELPKEVDLAFIFHDWTKDYSLFWKELATKHVPKLNKQGTRVIRTIPWRFLAGGDNSGIAEDTSKYPNTPEGNKALAKAIVDEYVYKYNLDGLDVDVEHDSIPKVDKKEDTAGVERSIQVFEEIGKLIGPKGVDKSRLFIMDSTYMADKNPLIERGAPYINLLLVQVYGSQGEKGGWEPVSNRPEKTMEERWQGYSKYIRPEQYMIGFSFYEENAQEGNLWYDINSRKDEDKANGINTDITGTRAERYARWQPKTGGVKGGIFSYAIDRDGVAHQPKKYAKQKEFKDATDNIFHSDYSVSKALKTVMLKDKSYDLIDEKDFPDKALREAVMAQVGTRKGDLERFNGTLRLDNPAIQSLEGLNKFKKLAQLDLIGLSRITKLDRSVLPANMKPGKDTLETVLETYKKDNKEEPATIPPVSLKVSGLTGLKELDLSGFDRETLAGLDAATLTSLEKVDISGNKLDLAPGTENRQIFDTMLSTISNHVGSNEQTVKFDKQKPTGHYPDTYGKTSLRLPVANEKVDLQSQLLFGTVTNQGTLINSEADYKAYQNHKIAGRSFVDSNYHYNNFKVSYENYTVKVTDSTLGTTTDKTLATDKEETYKVDFFSPADKTKAVHTAKVIVGDEKTMMVNLAEGATVIGGSADPVNARKVFDGQLGSETDNISLGWDSKQSIIFKLKEDGLIKHWRFFNDSARNPETTNKPIQEASLQIFNIKDYNLDNLLENPNKFDDEKYWITVDTYSAQGERATAFSNTLNNITSKYWRVVFDTKGDRYSSPVVPELQILGYPLPNADTIMKTVTTAKELSQQKDKFSQKMLDELKIKEMALETSLNSKIFDVTAINANAGVLKDCIEKRQLLKK
modifications: Streptococcus pyogenes
In the case of B2, the “ratio of B6 to NOD cells in blood” value in data set [4] (30 µg EndoS i.v. with 10 µg anti-K^b mAb vs mAb alone, one hour post-BMT, stable at two and three hours) was “significantly increased”; in data set [4] (EndoS with 100 µg anti-K^b mAb vs mAb alone, one and two hours post-BMT), “increased ratio”; in data set [4] (EndoS with 100 µg anti-K^b mAb, three hours post-BMT), “did not last”. The “ratio of B6 to NOD cells in BM and spleen” value in data set [4] (EndoS with 10 µg anti-K^b mAb vs mAb only, four hours post-BMT) is recorded as “significant increase”. Further, the “ratios of donor to recipient cells” value in data set [5] was “improved”.
